Reference: publication PMC13128273, “The interferon-stimulated gene product HERC5 inhibits human LINE-1 retrotransposition with an ISGylation-independent mechanism” (Nucleic Acids Research, 2026)

Target: L1.3 ORF2p-3×FLAG (human, UniProt O00370 1-1275)
Test: co-IP; ORF2p-3×FLAG precipitated with anti-FLAG from lysate of HEK293T cells transfected with pTMF3 together with pCMV-3Tag-9, HERC5 or MOV10 vector; ORF1p-T7 detected by anti-T7 blot, band intensities given as ORF1p/ORF2p ratio relative to the control; pTMH3 as negative control
Conditions: partners not purified

Sequence of L1.3 ORF2p-3×FLAG (O00370 whole entry): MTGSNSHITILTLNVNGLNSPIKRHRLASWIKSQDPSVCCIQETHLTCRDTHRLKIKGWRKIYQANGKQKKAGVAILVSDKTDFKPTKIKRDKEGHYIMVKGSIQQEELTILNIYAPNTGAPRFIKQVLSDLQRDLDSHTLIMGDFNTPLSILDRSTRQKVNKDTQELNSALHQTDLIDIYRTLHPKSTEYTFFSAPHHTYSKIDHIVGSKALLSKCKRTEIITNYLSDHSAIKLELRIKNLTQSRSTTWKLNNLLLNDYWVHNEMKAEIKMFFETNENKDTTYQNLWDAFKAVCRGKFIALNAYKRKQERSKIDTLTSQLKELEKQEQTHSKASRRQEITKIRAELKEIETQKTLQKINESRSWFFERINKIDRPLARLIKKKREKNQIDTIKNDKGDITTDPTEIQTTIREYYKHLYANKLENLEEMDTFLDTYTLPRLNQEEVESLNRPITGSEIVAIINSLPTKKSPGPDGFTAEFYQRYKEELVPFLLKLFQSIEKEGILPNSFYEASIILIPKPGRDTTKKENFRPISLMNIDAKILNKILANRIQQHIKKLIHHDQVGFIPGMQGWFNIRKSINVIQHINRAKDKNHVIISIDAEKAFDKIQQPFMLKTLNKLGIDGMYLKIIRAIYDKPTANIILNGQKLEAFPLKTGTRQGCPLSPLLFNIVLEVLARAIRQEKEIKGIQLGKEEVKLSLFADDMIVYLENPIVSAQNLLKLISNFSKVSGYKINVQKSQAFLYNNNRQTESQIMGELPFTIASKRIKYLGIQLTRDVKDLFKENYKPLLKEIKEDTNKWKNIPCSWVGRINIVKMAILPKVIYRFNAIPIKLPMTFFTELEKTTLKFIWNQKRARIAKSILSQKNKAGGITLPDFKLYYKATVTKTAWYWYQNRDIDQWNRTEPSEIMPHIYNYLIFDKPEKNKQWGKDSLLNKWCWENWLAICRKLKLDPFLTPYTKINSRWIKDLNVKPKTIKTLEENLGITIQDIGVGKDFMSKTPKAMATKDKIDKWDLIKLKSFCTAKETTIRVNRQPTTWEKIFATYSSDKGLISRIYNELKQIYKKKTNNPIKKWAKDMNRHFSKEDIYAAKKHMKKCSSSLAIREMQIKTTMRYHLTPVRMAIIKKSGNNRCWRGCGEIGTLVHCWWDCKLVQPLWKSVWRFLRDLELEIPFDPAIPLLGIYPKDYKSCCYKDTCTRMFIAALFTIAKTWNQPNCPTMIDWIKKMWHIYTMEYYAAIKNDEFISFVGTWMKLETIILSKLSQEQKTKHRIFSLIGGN

B1: L1.3 ORF1p-T7 (natural protein)
chain: MGKKQNRKTGNSKTQSASPPPKERSSSPATEQSWMENDFDELREEGFRRSNYSELREDIQTKGKEVENFEKNLEECITRITNTEKCLKELMELKTKARELREECRSLRSRCDQLEERVSAMEDEMNEMKREGKFREKRIKRNEQSLQEIWDYVKRPNLRLIGVPESDVENGTKLENTLQDIIQENFPNLARQANVQIQEIQRTPQRYSSRRATPRHIIVRFTKVEMKEKMLRAAREKGRVTLKGKPIRLTADLSAETLQARREWGPIFNILKEKNFQPRISYPAKLSFISEGEIKYFIDKQMLRDFVTTRPALKELLKEALNMERNNRYQPLQNHAKM
notes: ORF1p of the human LINE-1 element L1.3, expressed from the full-length L1.3 in pTMF3 or pTMH3; residues counted from the first methionine of L1.3 ORF1p; From pTMH3 in the HERC5-3×FLAG IP and from pTMF3 in the ORF2p-3×FLAG IP; source: HEK293T, transfected, in lysate
- decrease of the ORF1p/ORF2p ratio in the ORF2p-3×FLAG IP with HERC5 overexpression, against the empty vector: ~60%
